Here are results for three molecules from paper PMC6265731.

What all share (test): affinity purification with mass spectrometry
The target in experiment [1] is WT PLRV (assembled virions and/or soluble structural proteins CP and RTP, as captured by the α-PLRV antibody) (Potato leafroll virus).
In experiment [2] the target is non-incorporated (soluble) form of the PLRV readthrough protein expressed by the ΔCP mutant (Potato leafroll virus).
The target of experiment [3] is ΔRTC PLRV (virions and soluble structural proteins of the mutant whose RTD lacks the last 218 C-terminal residues) (Potato leafroll virus).

For “Potato leafroll virus P3a protein (from UniProt P0DTK2 1-45) (natural protein)”, in experiment [1], the fold decrease of P3a (normalised to CP) in ΔP17 APs against WT APs stood at 3.4 fold.

B1: Potato leafroll virus P17 movement protein (natural protein)
chain: MSMVVYNNQECEEGNPFAGALTEFSQWLWSRPLGNPGAEDAEEEAIAAQEELEFPEDEAQARHSCLQRTTSWATPKEVSPSGRVYQTVRHSRMEYSRPTMSIRSQASYFSSSARPLPPPPVPSLMSWTPIAKYHPSSPTSTSSKLRRAAPKLIKRG
As to B1, in experiment [2], the fold increase of P17 (normalised to CP) in ΔCP APs against WT APs was determined as 1.8 fold.

B2: Potato leafroll virus P1 polyprotein (natural protein)
chain: KEAGFLHPAFNFRGTSTMSASSGDYSAAPTPLYKSWALPSSLNLTTQPPPPLTDRSYYELVQALTSKMRLDCQTVGDMTWRHLSEMLFASWNSVKEVSLKAASVTLWAIINIWFGLYWTLARLITLFLWTFSIEALCLILLGCITSLIYKGALSLSEHLPVFLFMSPLKIIWRAAFSKRNYKNERAVEGYKGFSVPQKPPKSAVIELQHENGSHLGYANCIRLYSGENALVTAEHCLEGAFATSLKTGNRIPMSTFFPIFKSARNDISILVGPPNWEGLLSVKGAHFITADKIGKGPASFYTLEKGEWMCHSATIDGAHHQFVSVLCNTGPGYSGTGFWSSKNLLGVLKGFPLEEECNYNVMSVIPSIPGITSPNYVFESTAVKGRVFSDEAVKELEREASEAVKKLARFKSLTDKNWADDYDSDEDYGLEREAATNAPAEKTAQTNSAEKTAPSTSAEKTALTNKPLNGQAAPSAKTNGNSDIPDAATSAPPMDKMVEQIITAMVGRINLSEIEEKIVSRVSQKALQKPKQKKRGRRGGKNKQNSLPPTSTQSTSGAPKKEAAPQASGSAGTSRATTTPAPEAKPSGGKNSAKFTPSWRIKQQDSAGQKPDLKLNSKA
With B2, the fold increase of P1 (normalised to CP) in ΔRTC APs against WT APs in experiment [3] is 1.8 fold.
